{"source": "patent US20170183383A1", "about": "(JIANG XIANXING, published 2017)", "note": "Non-standard residues stand in square brackets, D forms with d. Groups on a side chain read outwards from the residue. Primed or numbered codes have the meaning given here. No end group written: not given here. *: point of attachment. C18 diacid = O=C(O)CCCCCCCCCCCCCCCCC(=O)*; Palmitoyl = CCCCCCCCCCCCCCCC(=O)*; PEG2′ = not defined here; Aib = CC(C)(N)C(=O)O"}
{"biological_target": "human glucagon-like peptide-1 receptor (human, UniProt P43220 24-463)", "sequence (P43220 24-463)": "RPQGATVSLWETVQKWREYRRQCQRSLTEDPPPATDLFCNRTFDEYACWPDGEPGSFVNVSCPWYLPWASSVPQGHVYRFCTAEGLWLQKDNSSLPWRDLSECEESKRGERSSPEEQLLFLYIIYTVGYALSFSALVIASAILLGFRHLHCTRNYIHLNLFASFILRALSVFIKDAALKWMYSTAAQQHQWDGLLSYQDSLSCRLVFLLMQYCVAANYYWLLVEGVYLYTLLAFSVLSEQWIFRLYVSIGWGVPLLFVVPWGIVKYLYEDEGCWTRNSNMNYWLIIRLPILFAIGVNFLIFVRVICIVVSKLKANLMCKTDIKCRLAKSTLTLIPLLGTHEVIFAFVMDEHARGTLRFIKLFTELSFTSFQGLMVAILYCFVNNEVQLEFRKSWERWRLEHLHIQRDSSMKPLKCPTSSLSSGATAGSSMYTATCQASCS", "assay": "cell-based or functional assay", "units": {"GLP-1R (EC50, nM), CRE-luciferase in HEK-293 cells": "nM"}}
{"binder": "H[dS]QGTFTSDYSKYLDEKAAK([PEG2′-PEG2′-Glu-C18 diacid])EFIEWLLRA-NH2", "note": "[Compound 2]", "GLP-1R (EC50, nM), CRE-luciferase in HEK-293 cells": 0.39}
{"binder": "H[dS]QGTFTSDYSKYLDSK([PEG2′-PEG2′-Glu-C18 diacid])AAHDFVEWLLNGGPSSGAPPPS-NH2", "note": "[Compound 3]", "GLP-1R (EC50, nM), CRE-luciferase in HEK-293 cells": 0.59}
{"binder": "H[dS]QGTFTSDYSKYLDEKAAK([PEG2′-PEG2′-Glu-C18 diacid])EFIEWLLNGGPSSGAPPPS-NH2", "note": "[Compound 4]", "GLP-1R (EC50, nM), CRE-luciferase in HEK-293 cells": 0.13}
{"binder": "H[dS]QGTFTSDK([PEG2′-PEG2′-Palmitoyl])SKYLD[Aib]RRAQDFVQWLMNTGGPSSGAPPPS-NH2", "note": "[Compound 5]", "GLP-1R (EC50, nM), CRE-luciferase in HEK-293 cells": 0.06}
{"binder": "H[dS]QGTFTSDK([PEG2′-PEG2′-C18 diacid])SKYLD[Aib]RRAQDFVQWLMNTGGPSSGAPPPS-NH2", "note": "[Compound 6]", "GLP-1R (EC50, nM), CRE-luciferase in HEK-293 cells": 0.1}
{"binder": "H[dS]QGTFTSDK([PEG2′-PEG2′-Glu-C18 diacid])SKYLD[Aib]RRAQDFVQWLMNTGGPSSGAPPPS-NH2", "note": "[Compound 8]", "GLP-1R (EC50, nM), CRE-luciferase in HEK-293 cells": 0.2}
{"binder": "H[dS]QGTFTSDYSKYLDK([PEG2′-PEG2′-C18 diacid])RRAQDFVQWLMNTGGPSSGAPPPS-NH2", "note": "[Compound 9]", "GLP-1R (EC50, nM), CRE-luciferase in HEK-293 cells": 0.52}
{"binder": "H[dS]QGTFTSDYSKYLDK([PEG2′-PEG2′-Glu-Palmitoyl])RRAQDFVQWLMNTGGPSSGAPPPS-NH2", "note": "[Compound 10]", "GLP-1R (EC50, nM), CRE-luciferase in HEK-293 cells": 0.35}
{"binder": "H[dS]QGTFTSDYSKYLDK([PEG2′-PEG2′-Glu-C18 diacid])RRAQDFVQWLMNTGGPSSGAPPPS-NH2", "note": "[Compound 11]", "GLP-1R (EC50, nM), CRE-luciferase in HEK-293 cells": 0.15}
{"binder": "H[dS]QGTFTSDYSKYLD[Aib]K([PEG2′-PEG2′-C18 diacid])RAQDFVQWLMNTGGPSSGAPPPS-NH2", "note": "[Compound 12]", "GLP-1R (EC50, nM), CRE-luciferase in HEK-293 cells": 0.32}
{"binder": "H[dS]QGTFTSDYSKYLD[Aib]K([PEG2′-PEG2′-Glu-Palmitoyl])RAQDFVQWLMNTGGPSSGAPPPS-NH2", "note": "[Compound 13]", "GLP-1R (EC50, nM), CRE-luciferase in HEK-293 cells": 0.44}
{"binder": "H[dS]QGTFTSDYSKYLD[Aib]K([PEG2′-PEG2′-Glu-C18 diacid])RAQDFVQWLMNTGGPSSGAPPPS-NH2", "note": "[Compound 14]", "GLP-1R (EC50, nM), CRE-luciferase in HEK-293 cells": 0.4}
{"binder": "H[dS]QGTFTSDYSK([PEG2′-PEG2′-Palmitoyl])KLD[Aib]RRAQDFVQWLMNTGGPSSGAPPPS-NH2", "note": "[Compound 15]", "GLP-1R (EC50, nM), CRE-luciferase in HEK-293 cells": 1.5}
{"binder": "H[dS]QGTFTSDYSK([PEG2′-PEG2′-C18 diacid])KLD[Aib]RRAQDFVQWLMNTGGPSSGAPPPS-NH2", "note": "[Compound 16]", "GLP-1R (EC50, nM), CRE-luciferase in HEK-293 cells": 0.6}
{"binder": "H[dS]QGTFTSDYSK([PEG2′-PEG2′-Glu-Palmitoyl])KLD[Aib]RRAQDFVQWLMNTGGPSSGAPPPS-NH2", "note": "[Compound 17]", "GLP-1R (EC50, nM), CRE-luciferase in HEK-293 cells": 0.68}
{"binder": "H[dS]QGTFTSDYSK([PEG2′-PEG2′-Glu-C18 diacid])KLD[Aib]RRAQDFVQWLMNTGGPSSGAPPPS-NH2", "note": "[Compound 18]", "GLP-1R (EC50, nM), CRE-luciferase in HEK-293 cells": 0.76}
{"binder": "H[Aib]QGTFTSDK([PEG2′-PEG2′-Glu-Palmitoyl])SKYLDERRAQDFVQWLLDGGPSSGAPPPS-NH2", "note": "[Compound 19]", "GLP-1R (EC50, nM), CRE-luciferase in HEK-293 cells": 0.14}
{"binder": "H[Aib]QGTFTSDK([PEG2′-PEG2′-Glu-C18 diacid])SKYLDERRAQDFVQWLLDGGPSSGAPPPS-NH2", "note": "[Compound 20]", "GLP-1R (EC50, nM), CRE-luciferase in HEK-293 cells": 0.09}
{"binder": "H[Aib]QGTFTSDK([PEG2′-PEG2′-Glu-Palmitoyl])SKYLD[Aib]RRAQDFVQWLLDGGPSSGAPPPS-NH2", "note": "[Compound 21]", "GLP-1R (EC50, nM), CRE-luciferase in HEK-293 cells": 0.15}
{"binder": "H[Aib]QGTFTSDK([PEG2′-PEG2′-Glu-C18 diacid])SKYLD[Aib]RRAQDFVQWLLDGGPSSGAPPPS-NH2", "note": "[Compound 22]", "GLP-1R (EC50, nM), CRE-luciferase in HEK-293 cells": 0.06}
{"binder": "H[dS]QGTFTSDYSKYLDEKAAK([PEG2′-PEG2′-Palmitoyl])EFIEWLLNGGPSSGAPPPS-NH2", "note": "[Compound 23]", "GLP-1R (EC50, nM), CRE-luciferase in HEK-293 cells": 0.13}
{"binder": "H[dS]QGTFTSDYSKYLDEKAAK([PEG2′-PEG2′-Glu-Palmitoyl])EFIEWLLNGGPSSGAPPPS-NH2", "note": "[Compound 24]", "GLP-1R (EC50, nM), CRE-luciferase in HEK-293 cells": 0.16}
{"binder": "H[dS]QGTFTSDYSKYLDSK([PEG2′-PEG2′-Glu-C18 diacid])AAHDFVEWLLRA-NH2", "note": "[Compound 1]", "GLP-1R (EC50, nM), CRE-luciferase in HEK-293 cells": 0.23}
{"biological_target": "human glucagon receptor (human, UniProt P47871 26-477)", "assay": "cell-based or functional assay", "units": {"GCGR (EC50, nM), CRE-luciferase in HEK-293 cells": "nM"}}
{"binder": "H[dS]QGTFTSDYSKYLDEKAAK([PEG2′-PEG2′-Glu-C18 diacid])EFIEWLLRA-NH2", "note": "[Compound 2]", "GCGR (EC50, nM), CRE-luciferase in HEK-293 cells": 2.8}
{"binder": "H[dS]QGTFTSDYSKYLDSK([PEG2′-PEG2′-Glu-C18 diacid])AAHDFVEWLLNGGPSSGAPPPS-NH2", "note": "[Compound 3]", "GCGR (EC50, nM), CRE-luciferase in HEK-293 cells": 1.02}
{"binder": "H[dS]QGTFTSDYSKYLDEKAAK([PEG2′-PEG2′-Glu-C18 diacid])EFIEWLLNGGPSSGAPPPS-NH2", "note": "[Compound 4]", "GCGR (EC50, nM), CRE-luciferase in HEK-293 cells": 0.39}
{"binder": "H[dS]QGTFTSDK([PEG2′-PEG2′-Palmitoyl])SKYLD[Aib]RRAQDFVQWLMNTGGPSSGAPPPS-NH2", "note": "[Compound 5]", "GCGR (EC50, nM), CRE-luciferase in HEK-293 cells": 0.43}
{"binder": "H[dS]QGTFTSDK([PEG2′-PEG2′-C18 diacid])SKYLD[Aib]RRAQDFVQWLMNTGGPSSGAPPPS-NH2", "note": "[Compound 6]", "GCGR (EC50, nM), CRE-luciferase in HEK-293 cells": 0.33}
{"binder": "H[dS]QGTFTSDK([PEG2′-PEG2′-Glu-Palmitoyl])SKYLD[Aib]RRAQDFVQWLMNTGGPSSGAPPPS-NH2", "note": "[Compound 7]", "GCGR (EC50, nM), CRE-luciferase in HEK-293 cells": 0.34}
{"binder": "H[dS]QGTFTSDK([PEG2′-PEG2′-Glu-C18 diacid])SKYLD[Aib]RRAQDFVQWLMNTGGPSSGAPPPS-NH2", "note": "[Compound 8]", "GCGR (EC50, nM), CRE-luciferase in HEK-293 cells": 0.18}
{"binder": "H[dS]QGTFTSDYSKYLDK([PEG2′-PEG2′-C18 diacid])RRAQDFVQWLMNTGGPSSGAPPPS-NH2", "note": "[Compound 9]", "GCGR (EC50, nM), CRE-luciferase in HEK-293 cells": 0.18}
{"binder": "H[dS]QGTFTSDYSKYLDK([PEG2′-PEG2′-Glu-Palmitoyl])RRAQDFVQWLMNTGGPSSGAPPPS-NH2", "note": "[Compound 10]", "GCGR (EC50, nM), CRE-luciferase in HEK-293 cells": 0.11}
{"binder": "H[dS]QGTFTSDYSKYLDK([PEG2′-PEG2′-Glu-C18 diacid])RRAQDFVQWLMNTGGPSSGAPPPS-NH2", "note": "[Compound 11]", "GCGR (EC50, nM), CRE-luciferase in HEK-293 cells": 0.18}
{"binder": "H[dS]QGTFTSDYSKYLD[Aib]K([PEG2′-PEG2′-C18 diacid])RAQDFVQWLMNTGGPSSGAPPPS-NH2", "note": "[Compound 12]", "GCGR (EC50, nM), CRE-luciferase in HEK-293 cells": 0.15}
{"binder": "H[dS]QGTFTSDYSKYLD[Aib]K([PEG2′-PEG2′-Glu-Palmitoyl])RAQDFVQWLMNTGGPSSGAPPPS-NH2", "note": "[Compound 13]", "GCGR (EC50, nM), CRE-luciferase in HEK-293 cells": 0.16}
{"binder": "H[dS]QGTFTSDYSKYLD[Aib]K([PEG2′-PEG2′-Glu-C18 diacid])RAQDFVQWLMNTGGPSSGAPPPS-NH2", "note": "[Compound 14]", "GCGR (EC50, nM), CRE-luciferase in HEK-293 cells": 0.19}
{"binder": "H[dS]QGTFTSDYSK([PEG2′-PEG2′-Palmitoyl])KLD[Aib]RRAQDFVQWLMNTGGPSSGAPPPS-NH2", "note": "[Compound 15]", "GCGR (EC50, nM), CRE-luciferase in HEK-293 cells": 0.6}
{"binder": "H[dS]QGTFTSDYSK([PEG2′-PEG2′-C18 diacid])KLD[Aib]RRAQDFVQWLMNTGGPSSGAPPPS-NH2", "note": "[Compound 16]", "GCGR (EC50, nM), CRE-luciferase in HEK-293 cells": 0.2}
{"binder": "H[dS]QGTFTSDYSK([PEG2′-PEG2′-Glu-Palmitoyl])KLD[Aib]RRAQDFVQWLMNTGGPSSGAPPPS-NH2", "note": "[Compound 17]", "GCGR (EC50, nM), CRE-luciferase in HEK-293 cells": 0.58}
{"binder": "H[dS]QGTFTSDYSK([PEG2′-PEG2′-Glu-C18 diacid])KLD[Aib]RRAQDFVQWLMNTGGPSSGAPPPS-NH2", "note": "[Compound 18]", "GCGR (EC50, nM), CRE-luciferase in HEK-293 cells": 0.18}
{"binder": "H[Aib]QGTFTSDK([PEG2′-PEG2′-Glu-Palmitoyl])SKYLDERRAQDFVQWLLDGGPSSGAPPPS-NH2", "note": "[Compound 19]", "GCGR (EC50, nM), CRE-luciferase in HEK-293 cells": 0.56}
{"binder": "H[Aib]QGTFTSDK([PEG2′-PEG2′-Glu-C18 diacid])SKYLDERRAQDFVQWLLDGGPSSGAPPPS-NH2", "note": "[Compound 20]", "GCGR (EC50, nM), CRE-luciferase in HEK-293 cells": 0.48}
{"binder": "H[Aib]QGTFTSDK([PEG2′-PEG2′-Glu-Palmitoyl])SKYLD[Aib]RRAQDFVQWLLDGGPSSGAPPPS-NH2", "note": "[Compound 21]", "GCGR (EC50, nM), CRE-luciferase in HEK-293 cells": 0.66}
{"binder": "H[Aib]QGTFTSDK([PEG2′-PEG2′-Glu-C18 diacid])SKYLD[Aib]RRAQDFVQWLLDGGPSSGAPPPS-NH2", "note": "[Compound 22]", "GCGR (EC50, nM), CRE-luciferase in HEK-293 cells": 0.32}
{"binder": "H[dS]QGTFTSDYSKYLDEKAAK([PEG2′-PEG2′-Palmitoyl])EFIEWLLNGGPSSGAPPPS-NH2", "note": "[Compound 23]", "GCGR (EC50, nM), CRE-luciferase in HEK-293 cells": 0.43}
{"binder": "H[dS]QGTFTSDYSKYLDEKAAK([PEG2′-PEG2′-Glu-Palmitoyl])EFIEWLLNGGPSSGAPPPS-NH2", "note": "[Compound 24]", "GCGR (EC50, nM), CRE-luciferase in HEK-293 cells": 0.58}
{"binder": "HSQGTFTSDYSKYLDSRRAQDFVQWLMNTKRNKNNIA (ligand)", "note": "[Oxyntomodulin]", "GCGR (EC50, nM), CRE-luciferase in HEK-293 cells": 6.2}
{"binder": "H[dS]QGTFTSDYSKYLDSK([PEG2′-PEG2′-Glu-C18 diacid])AAHDFVEWLLRA-NH2", "note": "[Compound 1]", "GCGR (EC50, nM), CRE-luciferase in HEK-293 cells": 0.54}
